Source: publication PMC3489827 (PLoS ONE, 2012)

What was measured:
[1] = target: HeV-G globular head domain (174–602) (Hendra virus) (UniProt O89343); experiment: crystal structure
[2] = target: T1, Ephrin-B2 (S27-D167) (UniProt P52799 27-167); experiment: crystal structure; conditions: both partners purified
T1 construct: also called ephrin-B2 receptor; not shown: Fc, C-terminal, cleaved
T1 sequence (looked up): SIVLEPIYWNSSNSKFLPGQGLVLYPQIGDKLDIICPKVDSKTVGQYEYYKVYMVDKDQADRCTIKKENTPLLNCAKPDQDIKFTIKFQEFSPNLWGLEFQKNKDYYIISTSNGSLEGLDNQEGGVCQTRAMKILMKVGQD

Question: For “HeV-G globular head domain (174–602) (from UniProt O89343 174-602) (domain or fragment)”, which stoichiometry N [1] is on record?
Answer: 2

B1: HeV-G globular head domain (174–602) (domain or fragment)
chain: ISQGVSDLVGLPNQICLQKTTSTILKPRLISYTLPINTREGVCITDPLLAVDNGFFAYSHLEKIGSCTRGIAKQRIIGVGEVLDRGDKVPSMFMTNVWTPPNPSTIHHCSSTYHEDFYYTLCAVSHVGDPILNSTSWTESLSLIRLAVRPKSDSGDYNQKYIAITKVERGKYDKVMPYGPSGIKQGDTLYFPAVGFLPRTEFQYNDSNCPIIHCKYSKAENCRLSMGVNSKSHYILRSGLLKYNLSLGGDIILQFIEIADNRLTIGSPSKIYNSLGQPVFYQASYSWDTMIKLGDVDTVDPLRVQWRNNSVISRPGQSQCPRFNVCPEVCWEGTYNDAFLIDRLNWVSAGVYLNSNQTAENPVFAVFKDNEILYQVPLAEDDTNAQKTITDCFLLENVIWCISLVEIYDTGDSVIRPKLFAVKIPAQCS
Question: B1 was tested. Which “stoichiometry N” value [2] did it give?
Answer: 1
